The source of these data is US20200369765A1 (INNATE PHARMA, published 2020).

Changes are numbered by the printed parent chain.

Experiment [1] concerns the target T1, Siglec-7 Fc protein (human).
T1 construct: Produced in CHO cells; also called human Siglec-7 Fc
Description: ELISA, blocking: Siglec-7 Fc captured on protein A, mAb dilution series, then biotinylated polymer Sia2, streptavidin-peroxidase (top panel); partial inhibition. The procedure:
(§1) Blocking of the interaction between Siglec-7 and -9 and sialylated ligands by anti Siglec-7/9 antibodies was tested on ELISA assays. Siglec proteins were Siglec-7 human Fc and Siglec-9 Human Fc recombinant proteins, and ligands were biotinylated polymers with sialylated trisaccharides (Neu5Aca2-3Galb1-4GcNAcb-PAA-biotin Glycotech #01-077 referred to as “Sia1” and 6′-Sialyllactose-PAA-biotin Glycotech #01-039 (referred to as “Sia2”). Briefly, Protein A was coated on ELISA plates over night at 4° C. After 3 washes and saturation, Siglec-7 Fc and Siglec-9 Fc were added at 0.8 μg/well at RT for 1H30. After 3 washes, mAbs were added at 20 ug/ml and a series of dilution of 1:5. After 3 washes, biotinylated sialylated polymers were added for 3 hours at room temperature. After 3 washes, Streptavidin-Peroxidase (Beckman) was added at 1:1000. […] The absorbance was read at 450 nm.

Experiment [2] deals with T2, Human Siglec-9 mutant M5 (human, UniProt Q9Y336 18-463).
T2 construct: Expressed on HEK293T cells; also called Mutant 5
T2 sequence (Q9Y336 other isoform, or with tags, fused parts or gaps mutant): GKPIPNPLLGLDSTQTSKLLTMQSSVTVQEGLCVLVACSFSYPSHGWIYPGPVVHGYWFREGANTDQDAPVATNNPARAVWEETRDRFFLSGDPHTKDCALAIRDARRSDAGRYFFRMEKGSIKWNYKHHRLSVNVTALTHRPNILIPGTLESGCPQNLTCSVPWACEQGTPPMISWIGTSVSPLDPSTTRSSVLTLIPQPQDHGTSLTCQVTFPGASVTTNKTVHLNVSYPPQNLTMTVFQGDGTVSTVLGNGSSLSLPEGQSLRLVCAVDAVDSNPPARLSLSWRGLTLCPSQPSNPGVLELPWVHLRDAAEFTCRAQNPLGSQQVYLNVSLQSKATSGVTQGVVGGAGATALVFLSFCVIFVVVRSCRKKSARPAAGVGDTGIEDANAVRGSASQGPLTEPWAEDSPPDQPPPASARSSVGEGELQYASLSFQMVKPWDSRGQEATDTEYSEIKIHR
Briefly: flow cytometry, HEK293T transfectants.

In experiment [3] the target is T3, Human Siglec-9 mutant M3 (human, UniProt Q9Y336 18-463).
T3 construct: Expressed on HEK293T cells; also called Mutant 3
T3 sequence (Q9Y336 other isoform, or with tags, fused parts or gaps mutant): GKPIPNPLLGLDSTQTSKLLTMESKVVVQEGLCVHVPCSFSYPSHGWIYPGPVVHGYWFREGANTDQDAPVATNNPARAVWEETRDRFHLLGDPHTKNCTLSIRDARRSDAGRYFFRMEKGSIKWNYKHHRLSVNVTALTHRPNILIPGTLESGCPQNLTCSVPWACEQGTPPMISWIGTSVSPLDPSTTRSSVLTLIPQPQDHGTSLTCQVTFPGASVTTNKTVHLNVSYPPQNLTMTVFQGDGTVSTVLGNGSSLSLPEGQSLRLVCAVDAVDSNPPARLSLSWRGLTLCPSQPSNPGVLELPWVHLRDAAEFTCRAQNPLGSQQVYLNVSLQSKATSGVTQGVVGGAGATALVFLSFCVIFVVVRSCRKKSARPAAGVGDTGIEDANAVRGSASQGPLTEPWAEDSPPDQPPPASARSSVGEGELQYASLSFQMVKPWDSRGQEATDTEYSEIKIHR
Briefly: flow cytometry, HEK293T transfectants.

Experiment [4] deals with T4, Human Siglec-9 N-terminal V-set Ig-like domain (human).
T4 construct: expressed on HEK293T cells
T4 sequence (chain, as listed by the source limits assumed): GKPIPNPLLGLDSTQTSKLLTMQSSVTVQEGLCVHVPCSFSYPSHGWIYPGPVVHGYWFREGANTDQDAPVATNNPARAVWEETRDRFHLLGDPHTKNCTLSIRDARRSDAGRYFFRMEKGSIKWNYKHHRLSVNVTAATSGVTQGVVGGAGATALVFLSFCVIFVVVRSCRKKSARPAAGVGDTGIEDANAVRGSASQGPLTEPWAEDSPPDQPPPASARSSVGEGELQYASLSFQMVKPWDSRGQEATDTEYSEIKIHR
Briefly: flow cytometry, HEK293T cells expressing single Siglec-9 domains.

Experiment [5] has as its target T5, Human Siglec-9 (human, UniProt Q9Y336 18-463).
T5 construct: On transfected CHO cells; also on YTS and KHYG-1 transfectants, primary NK cells and moDC; also called huSiglec-9; CD329
Briefly: flow cytometry, CHO transfectants. The procedure: (§2) Binding of antibodies on human Siglec-7, human Siglec-9 and Cynomolgus Siglec-9 was tested by titration experiment by flow cytometry on CHO cells transfected with human Siglec-7 and human Siglec-9 and Cynomolgus Siglec-9. Cells were incubated 1h in Staining Buffer (SB) with primary antibodies at 20 ug/ml and a series of dilution of 1:5. They were washed three times with SB, then incubated 30 min with a goat F(ab′)² Anti-human IgG (Fc) PE (Beckman Coulter #1M05510), and washed twice with SB.

Experiment [6] deals with T6, Human Siglec-7 (human, UniProt Q9Y286 19-467).
T6 construct: Expressed on transfected CHO cells; also called huSiglec-7; CD328
T6 sequence (Q9Y286 19-467): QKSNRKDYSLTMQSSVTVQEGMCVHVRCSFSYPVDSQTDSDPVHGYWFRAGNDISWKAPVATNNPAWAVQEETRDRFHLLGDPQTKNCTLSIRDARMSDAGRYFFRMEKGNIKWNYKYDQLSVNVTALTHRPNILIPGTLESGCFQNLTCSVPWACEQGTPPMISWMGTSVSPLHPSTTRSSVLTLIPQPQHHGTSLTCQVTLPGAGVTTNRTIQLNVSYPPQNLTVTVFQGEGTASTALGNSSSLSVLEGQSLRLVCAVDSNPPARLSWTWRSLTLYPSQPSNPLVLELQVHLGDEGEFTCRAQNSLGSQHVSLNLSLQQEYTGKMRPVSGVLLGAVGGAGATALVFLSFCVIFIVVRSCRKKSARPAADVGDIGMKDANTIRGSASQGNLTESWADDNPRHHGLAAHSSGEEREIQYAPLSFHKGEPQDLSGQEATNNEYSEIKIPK
Description: flow cytometry, CHO transfectants. The procedure:
as §2

Experiment [7] deals with T7, Cynomolgus Siglec (cynomolgus).
T7 construct: Expressed on transfected CHO cells; also called Siglec-Cyno; cynoSiglec
T7 sequence (chain, as listed by the source limits assumed): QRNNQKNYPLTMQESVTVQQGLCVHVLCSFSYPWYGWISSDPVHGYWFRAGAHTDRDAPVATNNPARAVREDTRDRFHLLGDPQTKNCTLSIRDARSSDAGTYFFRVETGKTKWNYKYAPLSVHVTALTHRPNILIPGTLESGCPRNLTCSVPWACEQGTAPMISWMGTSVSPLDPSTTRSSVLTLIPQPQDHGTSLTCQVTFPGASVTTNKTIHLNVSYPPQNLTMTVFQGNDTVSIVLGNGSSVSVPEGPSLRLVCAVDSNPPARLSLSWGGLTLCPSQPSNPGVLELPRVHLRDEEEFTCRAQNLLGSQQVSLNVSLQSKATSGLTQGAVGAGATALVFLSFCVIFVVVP
Description: flow cytometry, CHO transfectants. The procedure:
as §2

Experiment [8] addresses T8, Human Siglec-9 mutant M9 (human, UniProt Q9Y336 18-463).
T8 construct: Expressed on HEK293T cells; also called Mutant 9
Description: flow cytometry, HEK293T transfectants; '-' indicates full loss of binding.

The target of experiment [9] is T9, Human Siglec-9 mutant M11 (human, UniProt Q9Y336 18-463).
T9 construct: Expressed on HEK293T cells; also called Mutant 11
T9 sequence (Q9Y336 other isoform, or with tags, fused parts or gaps mutant): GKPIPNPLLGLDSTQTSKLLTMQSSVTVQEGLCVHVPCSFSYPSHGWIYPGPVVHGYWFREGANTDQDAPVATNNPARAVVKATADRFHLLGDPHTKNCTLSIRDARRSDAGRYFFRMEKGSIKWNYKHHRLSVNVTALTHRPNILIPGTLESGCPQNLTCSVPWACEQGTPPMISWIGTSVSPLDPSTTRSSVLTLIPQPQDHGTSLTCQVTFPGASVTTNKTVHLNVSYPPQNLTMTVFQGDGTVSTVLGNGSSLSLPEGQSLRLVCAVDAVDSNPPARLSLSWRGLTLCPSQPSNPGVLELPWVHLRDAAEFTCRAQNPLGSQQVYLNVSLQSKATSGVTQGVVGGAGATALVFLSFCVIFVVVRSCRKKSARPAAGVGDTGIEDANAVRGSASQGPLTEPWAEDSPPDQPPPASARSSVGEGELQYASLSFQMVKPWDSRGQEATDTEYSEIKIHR
The description is as above.

For experiment [10], the target named is T10, Human Siglec-9 mutant M10 (human, UniProt Q9Y336 18-463).
T10 construct: Expressed on HEK293T cells; also called Mutant 10
T10 sequence (Q9Y336 other isoform, or with tags, fused parts or gaps mutant): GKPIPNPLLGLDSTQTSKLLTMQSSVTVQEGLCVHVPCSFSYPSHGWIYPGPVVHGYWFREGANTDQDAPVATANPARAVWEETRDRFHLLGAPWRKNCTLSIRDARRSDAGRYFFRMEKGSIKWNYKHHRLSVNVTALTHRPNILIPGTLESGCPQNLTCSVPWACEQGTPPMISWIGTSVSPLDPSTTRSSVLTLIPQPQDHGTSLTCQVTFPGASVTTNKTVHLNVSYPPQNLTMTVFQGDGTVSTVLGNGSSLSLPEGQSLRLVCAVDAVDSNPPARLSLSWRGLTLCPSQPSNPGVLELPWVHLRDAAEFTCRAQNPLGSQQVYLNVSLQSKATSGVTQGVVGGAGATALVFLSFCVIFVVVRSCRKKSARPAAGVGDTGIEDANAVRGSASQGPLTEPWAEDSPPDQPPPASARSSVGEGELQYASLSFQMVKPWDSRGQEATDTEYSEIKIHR
Described as above.

The target in experiment [11] is T5, Human Siglec-9. Briefly: flow cytometry titration on untreated monocyte-derived dendritic cells (moDCs), goat F(ab')2 anti-human IgG (Fc) PE; table under the left panel. The method, then:
Binding on moDCs and neuraminidase treated moDCs was tested in a titration experiment by flow cytometry. Cells were incubated 1h in Staining Buffer (SB) with primary antibodies at 10 ug/ml and a series of dilution of 1:10. They were washed two times with SB, then incubated 30 min with a Goat F(ab′)² Anti-Human IgG (Fc) PE (Jackson ImmunoResearch), and washed twice with SB.

Experiment [12] has as its target T6, Human Siglec-7. Briefly: flow cytometry, CHO transfectants. This is another data set of the same source.
In experiment [13] the target is T8, Human Siglec-9 mutant M9. Briefly: flow cytometry, HEK293T transfectants.
Experiment [14] addresses T9, Human Siglec-9 mutant M11. Description: flow cytometry, HEK293T transfectants.
Experiment [15] has as its target T10, Human Siglec-9 mutant M10. Description: flow cytometry, HEK293T transfectants.
For experiment [16], the target named is T5, Human Siglec-9. Briefly: flow cytometry on fresh purified human NK cells, mean of 4 donors. The procedure:
Binding of antibodies on fresh purified human NK cells was tested by titration experiment by flow cytometry. Cells were incubated 1h in Staining Buffer (SB) with primary antibodies at 10 ug/ml and a series of dilution of 1:10. They were washed three times with SB, then incubated 30 min with a Goat F(ab′)² Anti-Human IgG (Fc) PE (Jackson ImmunoResearch). Stainings were acquired on a BD FACS Canto II and analyzed using the FlowJo software. EC₅₀ values are shown in the table below in μg/ml (calculated using a 4-parameter logistic fit).

For experiment [17], the target named is T11, Siglec-9 Fc protein (human).
T11 construct: Produced in CHO cells; also called human Siglec-9 Fc
T11 sequence (chain, as listed by the source limits assumed): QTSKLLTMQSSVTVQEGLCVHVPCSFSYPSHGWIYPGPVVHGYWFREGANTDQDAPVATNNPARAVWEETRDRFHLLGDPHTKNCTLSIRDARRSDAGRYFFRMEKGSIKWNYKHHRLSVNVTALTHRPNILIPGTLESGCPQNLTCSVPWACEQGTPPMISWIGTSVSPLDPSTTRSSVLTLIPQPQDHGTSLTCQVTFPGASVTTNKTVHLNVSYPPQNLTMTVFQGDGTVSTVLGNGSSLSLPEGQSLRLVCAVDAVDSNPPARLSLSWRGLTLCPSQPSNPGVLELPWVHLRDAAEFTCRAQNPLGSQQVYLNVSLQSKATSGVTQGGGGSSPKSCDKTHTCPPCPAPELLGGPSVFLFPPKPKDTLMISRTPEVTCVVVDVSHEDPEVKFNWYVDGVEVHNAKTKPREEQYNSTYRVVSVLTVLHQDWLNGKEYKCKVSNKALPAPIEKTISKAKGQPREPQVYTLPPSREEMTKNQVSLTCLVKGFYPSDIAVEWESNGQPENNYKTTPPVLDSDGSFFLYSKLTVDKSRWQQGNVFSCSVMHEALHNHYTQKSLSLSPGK
Description: ELISA, blocking: Siglec-9 Fc captured on protein A, mAb dilution series, then biotinylated polymer Sia1 (Neu5Aca2-3Galb1-4GlcNAcb-PAA-biotin), streptavidin-peroxidase (top panel). The method, then:
as §1

The target of experiment [18] is T12, Human Siglec-9 Ig-like C2-type domain 1 (human).
T12 construct: expressed on HEK293T cells
T12 chain: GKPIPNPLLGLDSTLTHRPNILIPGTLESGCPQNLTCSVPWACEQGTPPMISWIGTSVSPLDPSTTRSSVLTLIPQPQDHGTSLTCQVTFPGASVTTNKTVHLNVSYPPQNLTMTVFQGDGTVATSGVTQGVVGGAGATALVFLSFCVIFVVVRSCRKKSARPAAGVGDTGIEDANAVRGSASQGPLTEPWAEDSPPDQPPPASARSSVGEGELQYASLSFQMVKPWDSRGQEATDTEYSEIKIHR
Briefly: flow cytometry, HEK293T cells expressing single Siglec-9 domains.

T5 sequence (Q9Y336 18-463): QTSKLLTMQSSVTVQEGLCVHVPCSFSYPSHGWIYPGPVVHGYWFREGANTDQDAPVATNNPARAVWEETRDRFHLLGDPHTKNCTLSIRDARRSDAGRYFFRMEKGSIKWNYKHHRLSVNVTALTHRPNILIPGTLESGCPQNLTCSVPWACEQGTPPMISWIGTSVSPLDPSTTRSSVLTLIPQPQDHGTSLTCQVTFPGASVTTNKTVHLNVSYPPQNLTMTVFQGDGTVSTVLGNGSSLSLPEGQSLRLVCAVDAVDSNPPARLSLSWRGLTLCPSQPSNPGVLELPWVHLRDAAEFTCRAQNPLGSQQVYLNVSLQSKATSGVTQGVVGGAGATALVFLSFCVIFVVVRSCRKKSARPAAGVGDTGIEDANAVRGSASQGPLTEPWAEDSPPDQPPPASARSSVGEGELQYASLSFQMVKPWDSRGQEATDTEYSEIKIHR
T1 sequence (chain, as listed by the source limits assumed): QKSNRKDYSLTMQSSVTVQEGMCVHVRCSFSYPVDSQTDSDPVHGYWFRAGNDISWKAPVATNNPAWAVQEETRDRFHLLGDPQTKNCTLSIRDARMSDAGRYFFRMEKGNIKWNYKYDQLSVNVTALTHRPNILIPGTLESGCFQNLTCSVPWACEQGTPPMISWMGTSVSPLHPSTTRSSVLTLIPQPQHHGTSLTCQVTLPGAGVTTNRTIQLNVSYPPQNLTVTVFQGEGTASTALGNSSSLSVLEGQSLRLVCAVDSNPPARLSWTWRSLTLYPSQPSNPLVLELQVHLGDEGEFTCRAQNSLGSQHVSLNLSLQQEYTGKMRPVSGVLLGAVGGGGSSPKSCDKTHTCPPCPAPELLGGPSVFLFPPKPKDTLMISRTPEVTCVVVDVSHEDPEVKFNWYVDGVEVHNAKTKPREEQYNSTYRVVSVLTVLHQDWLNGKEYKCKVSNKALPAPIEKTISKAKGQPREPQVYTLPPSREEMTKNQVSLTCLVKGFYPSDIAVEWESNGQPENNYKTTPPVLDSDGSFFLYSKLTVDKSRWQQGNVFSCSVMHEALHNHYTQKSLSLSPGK
T8 sequence (Q9Y336 other isoform, or with tags, fused parts or gaps mutant): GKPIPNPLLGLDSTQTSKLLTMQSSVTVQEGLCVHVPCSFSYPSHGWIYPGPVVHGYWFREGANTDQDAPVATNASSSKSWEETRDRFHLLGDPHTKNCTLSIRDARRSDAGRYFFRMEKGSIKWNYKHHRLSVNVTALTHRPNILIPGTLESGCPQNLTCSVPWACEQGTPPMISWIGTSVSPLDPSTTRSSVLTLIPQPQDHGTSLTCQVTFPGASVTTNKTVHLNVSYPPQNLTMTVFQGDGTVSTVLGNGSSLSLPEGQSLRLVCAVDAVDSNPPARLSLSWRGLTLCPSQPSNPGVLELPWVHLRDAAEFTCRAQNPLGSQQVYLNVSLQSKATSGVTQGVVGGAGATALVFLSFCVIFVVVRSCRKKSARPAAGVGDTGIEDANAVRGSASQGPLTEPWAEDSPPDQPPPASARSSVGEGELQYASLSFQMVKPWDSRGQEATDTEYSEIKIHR

B1: mAb1 (antibody, human IgG1, V domains shown)
VH: DVQLQESGPGLVKPSQSLSLTCTVTGYSITGGFAWNWIRQFPGNTLEWMGYIGYGGSTSYNPSLNSRISITRDTSKNHFFLQFNSVTTDDSATYYCARGDYLFAYWGQGTLVTVSA
VL: DIVMTQSHKFMSTSVGDRVSITCKASQDVNTAVAWYQQKPGQSPKLLIYSASYRYTGVPDRFTGSGSGTDFTFTISSVQAEDLAVYYCQQHYSTPRTFGGGTKLEIK
As for B1, the “IC50 (read off the curve)” value in experiment [1] is around 3 µg/mL. Further, the binding result in experiment [2] was “binds”; in experiment [3], “binds”; in [4], “binds”; in experiment [8], “no binding”; in experiment [9], “no binding”; in experiment [10], “no binding”. For the same molecule, the EC50 in [5] was 0.11 µg/mL; in experiment [6], 0.21 µg/mL; in experiment [7], 0.67 µg/mL.

B2: mAbC (antibody, human IgG1, V domains shown)
VH: QIQLVQSGPELKKPGETVKISCKASGYTFTNYEMNWVKEAPGKGLKWMGWINTYTGESTYADDFKGRFAFSLETSASTVYLQINNLKDEDVATYFCVRDDYGRSYGFAYWGQGTLVTVSA
VL: NIVLTQSPASLTVSLGQRANISCRASESVDSYGNSFMHWYQQKPGQPPKLLIYLASKLESGVPARFSGSGSRTDFTLTIDPVETDDAATYYCHQNNEDPPWTFGGGTKLEIK
Turning to B2, the EC50 in [11] stood at 0.196 µg/mL; in experiment [16], 0.09 µg/mL. Moreover, the binding result is “no binding” in experiment [12]; “binds” in experiment [13]; “binds” in [2]; “binds” in experiment [14]; “binds” in [3]; “binds” in [15]. Further, the binding result in experiment [4] is reported as “binds”.

B3: mAb5 (antibody, human IgG1, V domains shown)
VH: EIQLQQSGPELEKPGASVKISCKASGYSFSDYNMNWVKQSNGKSLEWIGNIDPYYGATSYNQRFKGKATLTVDKSSSTAYMQLKSLTSEDSAVYYCARGDSLFAYWGHGTLVTVSA
VL: DIVMTQSQEFMSTSLGDRVSVTCKASQNVGTNVAWYQQKPGQSPKALLYSASSRYSGVPDRFTGSGSGTDFTLTISNVQSEDLAEYFCQQYITYPYTFGGGTKLEIK
On to B3, for which the “IC50 (read off the curve)” value in experiment [1] was around 1 µg/mL. In addition, the binding result in experiment [17] and in [18] was “binds” in each case. The EC50 is 0.26 µg/mL in experiment [5], 0.22 µg/mL in experiment [6] and 0.14 µg/mL in experiment [7].

B4: mAb6 (antibody, human IgG1, V domains shown)
VH: B3 VH with H108Q
VL: B3 VL with S76N, V78M
Regarding B4, the binding result in [17] and in experiment [18] was “binds” each time. For the same molecule, the figures for the EC50 in experiment [5], in experiment [6] and in experiment [7] were 0.31 µg/mL, 0.33 µg/mL and 0.17 µg/mL, respectively.

B5: mAb4 (antibody, human IgG1, V domains shown)
VH: DVQLVESGGDLVKPGGSLKLSCAASGFAFSSYDMSWVRQSPEKRLEWIAHIGSGGGNIYYPDTVKGRFTISRDNAKNTLYLQMRSLKSEDTAMYYCARLIFTTGFYGMDYWGQGTSVTVSS
VL: DIQMTQTTSSLSASLGDRVTISCRASQDISSYLNWYQQKPDGTIKLLIYYTSRLHSGVPSRFSGSGSGTDYSLTISNLDQDDIATYFCQQGNALPWTFGGGTKLEIK
Take B5: in experiment [1], the “IC50 (read off the curve)” value was around 2 µg/mL. Also, the binding result in [17] and in experiment [18] was “binds” throughout. Also, the results for the 50% effective concentration (EC50) in experiment [5], in experiment [6] and in [7] were 0.28 µg/mL, 0.17 µg/mL and 0.17 µg/mL, respectively.
